Usually Kd stands for the equilibrium constant for the complex coming apart.

Here are results for two molecules from publication PMC3979106 (Structure(London, England:1993), 2014).

One assay has as its target Ube2T (Homo sapiens) (UniProt Q9NPD8). Conditions: cited from earlier work.
The target in assay [1] is T1, Human Ube2T Arg99Ser/Ser101Arg (human, UniProt Q9NPD8 1-197, Arg99Ser | Ser101Arg).
T1 construct: Ube2T, human, double point mutant; also called Arg99Ser/Ser101Arg-Ube2T; source: E. coli, expressed as WT protein, purified; not shown: 6xHis-Smt3, N-terminal, cleaved
T1 sequence (looked up): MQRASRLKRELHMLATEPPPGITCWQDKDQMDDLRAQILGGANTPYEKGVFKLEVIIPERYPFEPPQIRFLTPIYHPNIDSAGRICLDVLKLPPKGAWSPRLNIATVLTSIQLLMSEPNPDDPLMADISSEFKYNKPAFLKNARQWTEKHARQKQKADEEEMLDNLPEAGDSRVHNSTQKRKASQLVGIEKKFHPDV
The assay is described as follows: SEC; analytical size-exclusion chromatography, Superdex 75 10/300; RING domain and one E2 incubated 1 hr on ice in 0.1 M NaCl, 0.1 M Tris pH 8, 250 μM TCEP; complex read as a peak shift to the left. Conditions: both partners purified. On the technique in general: Size exclusion chromatography separates by hydrodynamic size, large species first.

For a further assay, the target named is T2, Human Ube2T Ser5Arg (human, UniProt Q9NPD8 1-197, Ser5Arg).
T2 construct: Ube2T, human, point mutant; also called Ser5Arg-Ube2T; source: E. coli, expressed as WT protein, purified; not shown: 6xHis-Smt3, N-terminal, cleaved
T2 sequence (looked up): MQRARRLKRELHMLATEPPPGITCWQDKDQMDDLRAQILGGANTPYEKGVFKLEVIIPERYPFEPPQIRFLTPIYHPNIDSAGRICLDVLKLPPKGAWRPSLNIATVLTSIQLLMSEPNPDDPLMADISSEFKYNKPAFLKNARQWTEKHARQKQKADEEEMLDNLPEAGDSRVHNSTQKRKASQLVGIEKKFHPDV
Described as above. Conditions: both partners purified.

Take FANCL (from UniProt Q9NW38): the equilibrium dissociation constant (Kd) with Ube2T (Homo sapiens) is 500 nM.

B1: Human FANCL RING domain (residues 289–375) (domain or fragment, UniProt Q9NW38 289-375, looked up)
chain: EIDFPARAILEKSDFTMDCGICYAYQLDGTIPDQVCDNSQCGQPFHQICLYEWLRGLLTSRQSFNIIFGECPYCSKPITLKMSGRKH
notes: FANCL, human, RING domain, residues 289-375, cloned from synthetic codon-optimised human FANCL DNA (GeneArt); also called WT RING; source: E. coli BL21, purified (Ni-NTA, Ulp1 cleavage, Superdex); not shown: 6xHis-Smt3, N-terminal, cleaved
As to B1, the binding result (in assay [1]; with Human Ube2T Ser5Arg) was “binds” each time.
